The text below walks through data of paper doi:10.1101/2020.02.09.940833 (bioRxiv, 2020).

This experiment addresses SAR1B (human, UniProt Q9Y6B6 1-198). Put plainly: liposome flotation.

Sequence of SAR1B (Q9Y6B6 whole entry): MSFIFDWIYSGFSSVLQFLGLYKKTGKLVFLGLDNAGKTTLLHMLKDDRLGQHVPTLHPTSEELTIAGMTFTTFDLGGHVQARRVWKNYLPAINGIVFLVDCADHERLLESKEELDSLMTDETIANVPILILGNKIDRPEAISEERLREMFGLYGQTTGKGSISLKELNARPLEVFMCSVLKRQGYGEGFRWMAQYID

B1: SEC23B (natural protein)
chain: MATYLEFIQQNEERDGVRFSWNVWPSSRLEATRMVVPLACLLTPLKERPDLPPVQYEPVLCSRPTCKAVLNPLCQVDYRAKLWACNFCFQRNQFPPAYGGISEVNQPAELMPQFSTIEYVIQRGAQSPLIFLYVVDTCLEEDDLQALKESLQMSLSLLPPDALVGLITFGRMVQVHELSCEGISKSYVFRGTKDLTAKQIQDMLGLTKPAMPMQQARPAQPQEHPFASSRFLQPVHKIDMNLTDLLGELQRDPWPVTQGKRPLRSTGVALSIAVGLLEGTFPNTGARIMLFTGGPPTQGPGMVVGDELKIPIRSWHDIEKDNARFMKKATKHYEMLANRTAANGHCIDIYACALDQTGLLEMKCCANLTGGYMVMGDSFNTSLFKQTFQRIFTKDFNGDFRMAFGATLDVKTSRELKIAGAIGPCVSLNVKGPCVSENELGVGGTSQWKICGLDPTSTLGIYFEVVNQHNTPIPQGGRGAIQFVTHYQHSSTQRRIRVTTIARNWADVQSQLRHIEAAFDQEAAAVLMARLGVFRAESEEGPDVLRWLDRQLIRLCQKFGQYNKEDPTSFRLSDSFSLYPQFMFHLRRSPFLQVFNNSPDESSYYRHHFARQDLTQSLIMIQPILYSYSFHGPPEPVLLDSSSILADRILLMDTFFQIVIYLGETIAQWRKAGYQDMPEYENFKHLLQAPLDDAQEILQARFPMPRYINTEHGGSQARFLLSKVNPSQTHNNLYAWGQETGAPILTDDVSLQVFMDHLKKLAVSSAC
In the case of B1, the “fold binding relative to SAR1A, with SEC31A-af added” value is approximately 5 fold and the “fold recruitment relative to SAR1A” value was approximately 5 fold.

B2: SEC23A (natural protein)
chain: MTTYLEFIQQNEERDGVRFSWNVWPSSRLEATRMVVPVAALFTPLKERPDLPPIQYEPVLCSRTTCRAVLNPLCQVDYRAKLWACNFCYQRNQFPPSYAGISELNQPAELLPQFSSIEYVVLRGPQMPLIFLYVVDTCMEDEDLQALKESMQMSLSLLPPTALVGLITFGRMVQVHELGCEGISKSYVFRGTKDLSAKQLQEMLGLSKVPLTQATRGPQVQQPPPSNRFLQPVQKIDMNLTDLLGELQRDPWPVPQGKRPLRSSGVALSIAVGLLECTFPNTGARIMMFIGGPATQGPGMVVGDELKTPIRSWHDIDKDNAKYVKKGTKHFEALANRAATTGHVIDIYACALDQTGLLEMKCCPNLTGGYMVMGDSFNTSLFKQTFQRVFTKDMHGQFKMGFGGTLEIKTSREIKISGAIGPCVSLNSKGPCVSENEIGTGGTCQWKICGLSPTTTLAIYFEVVNQHNAPIPQGGRGAIQFVTQYQHSSGQRRIRVTTIARNWADAQTQIQNIAASFDQEAAAILMARLAIYRAETEEGPDVLRWLDRQLIRLCQKFGEYHKDDPSSFRFSETFSLYPQFMFHLRRSSFLQVFNNSPDESSYYRHHFMRQDLTQSLIMIQPILYAYSFSGPPEPVLLDSSSILADRILLMDTFFQILIYHGETIAQWRKSGYQDMPEYENFRHLLQAPVDDAQEILHSRFPMPRYIDTEHGGSQARFLLSKVNPSQTHNNMYAWGQESGAPILTDDVSLQVFMDHLKKLAVSSAA
Turning to B2, the “fold binding relative to SAR1A, with SEC31A-af added” value was approximately 5 fold and the “fold recruitment relative to SAR1A” value was approximately 5 fold.
